From patent US6709814B1, “Peptides causing formation of compact structures” (Rigel Pharmaceuticals, Inc., priority 1998, dated 2004)
Bridge positions count the residues as written; N and C are the ends. Square brackets hold non-standard residues; d marks the D form. Ends that are not written are not given here. Peptide text beside a SMILES is read from it. pGlu = O=C1CC[C@@H](C(=O)O)N1

What was measured:
[1] = biological target: T1, porcine pancreatic elastase (Sus scrofa, UniProt P00772); experiment: Inhibition of porcine pancreatic elastase (succinyl-ala-ala-ala-p-nitroanilide cleavage); type: biochemical; conditions: pH 7.88, 25 C
T1 construct: purchased Sigma Chemical Co., St. Louis, Mo
T1 sequence (P00772 27-266): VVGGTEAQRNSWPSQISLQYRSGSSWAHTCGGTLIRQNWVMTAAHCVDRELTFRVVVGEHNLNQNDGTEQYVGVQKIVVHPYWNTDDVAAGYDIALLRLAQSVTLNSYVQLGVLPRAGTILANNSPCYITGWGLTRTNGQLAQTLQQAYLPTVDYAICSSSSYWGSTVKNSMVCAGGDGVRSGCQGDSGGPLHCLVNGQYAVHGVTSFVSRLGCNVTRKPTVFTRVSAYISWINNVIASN
Description: Inhibition by different peptide constructs was followed by preincubation of 10 μM peptide with elastase for 1-1.5 min. followed by addition of the substrate. Percent inhibition was calculated as [1−{assay slope(peptide+elastase)/assay slope(elastase alone)}]×100%.

[2] = Observation of peptide dimers by electrospray MS / LC-MS under harsh conditions; type: binding; conditions: electrospray ion trap, infusion at pH 6.4 or C18 elution at ~pH 2.5 in acetonitrile
Description: The peptide also forms dimers (also detected by mass spectrometry) when eluted off a C18 reversed phase column at pH ˜2.5 in ca. 25% acetonitrile (FIG. 3B).
LC/MS examination of the crude synthesis products from an all-single coupled fmoc synthesis of EFLIVKS-amide, for shorter sequences which can dimerize after electrospray ionization is shown in FIG. 4. HPLC elution was with a gradient of 99.9% water-0.1% TFA to 99.9% acetonitrile-0.1% TFA. Dimers of the following truncated sequences were detected by mass spectrometry with the percent acetonitrile in parentheses, all at ˜pH 2.5: peak 1, […] (23.5%), monomer m/z=705.3, dimer m/z=1409.3; peak 4: EFLIVKS-amide (25%), monomer m/z=834.4, dimer m/z=1667.3; and peak 5, EFLIVK-amide (32%), monomer m/z=747.4, dimer m/z=1493.1.

[3] = cited from earlier work; for dimer formation of HA fragments: compared with HA; for concentration at which dimers form / do not dissociate: aqueous solution, physiological conditions
[4] = biological target: T1, porcine pancreatic elastase; conditions: Leatherbarrow and Salacinski; read-out: reported apparent inhibition constant (Ki) for elastase; cited from earlier work
[5] = Solubility of peptide constructs; type: physicochemical
[6] = biological target: the molecule itself; experiment: self-dimerization, electrospray mass spectrometry, relative dimer ion current against peptide concentration, pH 5.0
[7] = biological target: the molecule itself; experiment: LC/MS, C18 reversed phase elution at ~pH 2.5, electrospray
[8] = biological target: the molecule itself; experiment: self-dimerization, electrospray mass spectrometry, alanine scan
[9] = biological target: porcine pancreatic elastase (porcine, UniProt P00772 27-266); experiment: cell-based or functional assay
Sequence of porcine pancreatic elastase (porcine, UniProt P00772 27-266) (P00772 27-266 limits assumed): as the sequence (P00772 27-266) above

O=S(=O)(F)Cc1ccccc1 [PMSF]
inhibition of porcine pancreatic elastase ([1]; 2 mM PMSF): 100%

EFLIVK-amide (EFLIVK-NH2)
dimer detected by mass spectrometry [2]: Dimers

LIVKS-amide
dimer detected by mass spectrometry [2]: Dimers

EFLIVKS
dimer detected by mass spectrometry ([2]; listed as EFLIVKS-amide): self-associate to form dimers

pSKVILF
dimer formation of HA fragments [3]: dimerized more efficiently

[pGlu]PPGGSKVILF [HA]
concentration at which dimers form / do not dissociate [3]: ≤ 10^−13 M

VSIKFEL [peptide designed to form a short beta sheet]
dimer detected by mass spectrometry [2]: dimeric form of the peptide

CC[C@H](C)[C@@H]1NC(=O)[C@H](CCCNC(=N)N)NC(=O)[C@H](Cc2ccc(O)cc2)NC(=O)[C@H](CCC(=O)O)NC(=O)[C@H](CCSC)NC(=O)[C@H]([C@@H](C)O)NC(=O)[C@H](C(C)C)NC(=O)[C@H]([C@@H](C)CC)NC(=O)[C@H]([C@@H](C)O)NC(=O)CNC(=O)[C@@H](N)CSSC[C@@H](C(=O)O)NC(=O)[C@H](Cc2ccccc2)NC(=O)[C@H](CO)NC(=O)[C@H](CCCNC(=N)N)NC(=O)[C@H]([C@@H](C)O)NC(=O)[C@H](CCCNC(=N)N)NC(=O)[C@H](CC(=O)O)NC1=O [cyclic[CGTIVTMEYRIDRTRSFC]] (H-CGTIVTMEYRIDRTRSFC-OH; disulfide 1-18)
Ki [4]: 0.00039 µM | inhibition of porcine pancreatic elastase ([1]; 500 nM peptide, 100 μM succ-ala-ala-ala-p-nitroanilide): 6.2%

SKVILFE
concentration at which dimers form / do not dissociate [3]: ~10^−13 M

EFLIVKSSTKSIPPQSEFLIVKS [EFLIVKS-STKSIPPQS-EFLIVKS]
solubility [5]: quite soluble at low pH

[pGlu]PPGGSK
dimer formation of HA fragments [3]: did not lead to dimer formation

pVILF
dimer formation of HA fragments [3]: did not lead to dimer formation

B1: EFLIVKA (peptide)
peptide: EFLIVKA
notes: Alanine scan analog of EFLIVKS (S7A)
Kd [6]: 9.9 µM

B2: EFLIVK-amide (peptide)
peptide: EFLIVK-NH2
notes: Truncated by-product of the EFLIVKS-amide synthesis; also called peak 5
binding result [7]: binds

B3: EFLIVKS (peptide)
peptide: EFLIVKS-NH2
notes: also called EFLIVKS-amide; dimerizer
Kd [6]: 7.8 µM

B4: EFLIVAS (peptide)
peptide: EFLIVAS
notes: Alanine scan analog of EFLIVKS (K6A)
Kd [6]: > 50 µM | fold weakening of self-binding against EFLIVKS [8]: 6 fold

B5: VSIKFEL (peptide)
peptide: VSIKFEL
notes: Peptide designed to form a short beta sheet
Kd [6]: 13 µM

B6: EALIVKS (peptide)
peptide: EALIVKS
notes: Alanine scan analog of EFLIVKS (F2A)
Kd [6]: 42 µM | fold weakening of self-binding against EFLIVKS [8]: 5.4 fold

B7: SKVILFE (peptide)
peptide: SKVILFE-NH2
notes: also called SKVILFE-amide; test peptide SKVILFE
Kd [6]: 12 µM

B8: EFAIVKS (peptide)
peptide: EFAIVKS
notes: Alanine scan analog of EFLIVKS (L3A)
Kd [6]: 76 µM | fold weakening of self-binding against EFLIVKS [8]: 9.7 fold

B9: EFLIAKS (peptide)
peptide: EFLIAKS
notes: Alanine scan analog of EFLIVKS (V5A)
Kd [6]: 82 µM | fold weakening of self-binding against EFLIVKS [8]: 10 fold

B10: EFLAVKS (peptide)
peptide: EFLAVKS
notes: Alanine scan analog of EFLIVKS (I4A)
Kd [6]: 42 µM | fold weakening of self-binding against EFLIVKS [8]: 5.4 fold

B11: KFLIVKS (peptide)
peptide: KFLIVKS
notes: Analog of EFLIVKS with the N-terminal glu replaced by lys
Kd [6]: 6.8 µM

B12: cyclic[CGTIVTMEYRIDRTRSFC] (peptide)
peptide: CGTIVTMEYRIDRTRSFC
modifications: disulfide 1-18
inhibition (% inhibition of elastase cleavage of succ-ala-ala-ala-p-nitroanilide) [9]: 6.2%

B13: AFLIVKS (peptide)
peptide: AFLIVKS
notes: Alanine scan analog of EFLIVKS (E1A)
Kd [6]: 12 µM
